Results: the supplement of paper PMC9170038

Tested on: MS2 coat protein
Test: apparent KD of MS2 coat protein; designed switch direction (-1 OFF switch, 1 ON switch): -1; higher = weaker reporter binding
In short: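 Designed RNA switches with common flanks were transcribed on Illumina chips by stalled E. coli RNA polymerase and titrated with SNAP-549-labelled MS2 coat protein, from 0.7 or 1.5 nM doubling to 3 µM, in Tris-HCl pH 7.5 buffer with KCl, MgCl2, BSA, DTT, tRNA and Tween-20. Steps lasted 0.8–1.5 h (lowest) to 10–20 min (highest). Titrations ran without input, with 200 uM small-molecule ligand, or with an oligonucleotide input. Normalised cluster fluorescence was curve-fitted, and apparent KD is the per-design median over clusters.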

[1] = Eterna round: R95, input ligand: FMN 200 uM
[2] = Eterna round: R95, input ligand: microRNA oligo, concentration not stated
[3] = Eterna round: R95, input ligand: none
[4] = input ligand: microRNA oligo, concentration not stated

## ACCUCACAUGAGGAUCACCCAUGUCAGGAUAUGUACCCGAUCAAGUCAGAGAUCGGAAGCAGAAGGGACUGCGG [Bemabebe] (puzzle: Exclusion 1)
[1]
  apparent KD of MS2 coat protein: 26.5 nM
[2]
  apparent KD of MS2 coat protein: 99.3 nM
[3]
  apparent KD of MS2 coat protein: 86.5 nM

## ACCUCACAUGAGGAUCACCCAUGUCAGGAUAUUCAAACAGGCGAAACUCCGCCUUCUCGAAGAAGGGACAUUAA [Israon] (Eterna round: R96, puzzle: Exclusion 1)
Input ligand: FMN 200 uM
  apparent KD of MS2 coat protein: 82.1 nM
[4]
  apparent KD of MS2 coat protein: 14.6 nM
Input ligand: none
  apparent KD of MS2 coat protein: 17.7 nM

## ACCUCACAUGAGGAUCACCCAUGUCAGGAUAUUCAAACAGGCGAAACUCCGCCUUCUCGAAGAAGGGACAUUAA [Israon] (puzzle: Exclusion 1)
[2]
  apparent KD of MS2 coat protein: 16.2 nM

## ACCUCACUUGAGGAUCACCCAAGUCAGGAUAUACUCGUUUGCCACAAAACGCGGCAUUGUAGAAGGGACGGGCU [Esusso] (Eterna round: R97, puzzle: Exclusion 1)
Input ligand: FMN 200 uM
  apparent KD of MS2 coat protein: 30 nM
Input ligand: none
  apparent KD of MS2 coat protein: 21.5 nM

## ACCUCACUUGAGGAUCACCCAAGUCAGGAUAUACUCGUUUGCCGCACGACGCGGCAUUGUAGAAGGGACGGGCU [Soraedrale] (Eterna round: R97, puzzle: Exclusion 1)
Input ligand: FMN 200 uM
  apparent KD of MS2 coat protein: 34.1 nM
Input ligand: none
  apparent KD of MS2 coat protein: 18.1 nM

## ACCUUAAAAGUGAGGAUAUCUAGGGCCAAAUGGCCGGAGAAGGCACAUGAGGAUCACCCAUGUAACGCCAUGGA [Beinat] (puzzle: Brourd's mod of Exclusion 4)
[2]
  apparent KD of MS2 coat protein: 13.9 nM

## ACCUUACAUGAGGAUCACCCAUGUCAGGAUAUCUCGGACGGCUGAAAACCAACCGUCCAGAGAAGGGACGAGGA [Solamaso] (puzzle: Exclusion 1)
[2]
  apparent KD of MS2 coat protein: 12.5 nM

## ACCUUACAUGAGGAUCACCCAUGUCAGGAUAUCUCGGGCGGCUGGAGACCAGCCGCCCAGAGAAGGGACGAGGA [Engeisbe] (puzzle: Exclusion 1)
[2]
  apparent KD of MS2 coat protein: 12.2 nM

## ACGAUUGUAGGAUAUACUUGGAGAGUGUUCACAUAUUAACGACAUGAGGAUCACCCAUGUAGAAGGGCAAUCGG [Eternabot (L1) Solution 22] (Eterna round: R97, puzzle: Exclusion 2)
Input ligand: FMN 200 uM
  apparent KD of MS2 coat protein: 174 nM
Input ligand: none
  apparent KD of MS2 coat protein: 421 nM

## ACGCAUUGCCAAAGGUAGUGCGUAACAUGAGGAUCACCCAUGUAGGAUAUGGUAGGCUUUGCUUACCAGAAGGACAUAAUAAUU [Mat - Exclusion NG 3 - Mod of JL - D4] (Eterna round: R96, puzzle: Exclusion NG 3)
Input ligand: FMN 200 uM
  apparent KD of MS2 coat protein: 43.6 nM
[4]
  apparent KD of MS2 coat protein: 22.7 nM
Input ligand: none
  apparent KD of MS2 coat protein: 27.8 nM

## ACGUAACGAGCUUGGUCCAACAUGAGGAUCACCCAUGUGCUCGUCUUAUAACGUACUGUCACGUUAGUGAUAGUGCG [Sensor v3, turn-off variant 1 (MOD of Eli's v1-13 v.6)] (puzzle: Sensor v3, turn-off variant 1)
[1]
  apparent KD of MS2 coat protein: 286 nM
[2]
  apparent KD of MS2 coat protein: 194 nM
[3]
  apparent KD of MS2 coat protein: 360 nM

## ACGUAUAGAGGAUAUACAGAAUAUUACAUGAGGAUCACCCAUGUUCUUCAAUGUAUAUUUGUAGAAGGCUAAUGAA [EX-5 Malc#8] (puzzle: Exclusion 5)
[2]
  apparent KD of MS2 coat protein: 62.3 nM

## ACGUGGGCCCUUAGUGAACAUGAGGAUCACCCAUGUAACCACAAGGAUAUCUACGCCAGCACGCGAGAGAAGGUGUGAAAUAAU [Maorbetiza] (Eterna round: R96, puzzle: Exclusion NG 3)
Input ligand: FMN 200 uM
  apparent KD of MS2 coat protein: 132 nM
[4]
  apparent KD of MS2 coat protein: 35.4 nM
Input ligand: none
  apparent KD of MS2 coat protein: 44.8 nM

## ACUCAGUGAGGAUAUCGCCAGAGAGCCGCAACAGCUCCUGAUGAGAAGGCACAUGAGGAUCACCCAUGUAAGCA [EX4 C.19] (Eterna round: R97, puzzle: Exclusion 4)
Input ligand: FMN 200 uM
  apparent KD of MS2 coat protein: 321 nM
Input ligand: none
  apparent KD of MS2 coat protein: 116 nM

## ACUCUAUAGUAGGAUAUCAUCAAACUAUUGUGAUGAGAAGGACUAACAUGAGGAUCACCCAUGUUAACGUGAAG [Mod of Brourd 5 - Jieux - Exclusion 6] (Eterna round: R97, puzzle: Exclusion 6)
Input ligand: FMN 200 uM
  apparent KD of MS2 coat protein: 24.3 nM
Input ligand: none
  apparent KD of MS2 coat protein: 21.1 nM

## ACUGCCACAGGAUAUACGAAACUCUUGGGUUCCGCCGUGUGACAUGAGGAUCACCCAUGUAGAAGGGUGGCUUA [Atbiinza] (puzzle: Exclusion 2)
[2]
  apparent KD of MS2 coat protein: 398 nM

## ACUGUUUGAUACCUCUUAUACAUGAGGAUCACCCAUGUUAUCGAGGAUAUGCAUUAGAGUGGUUAGCAGAAGGCGAUGUAAUUG [JR_ExcNG3_Sub032] (Eterna round: R96, puzzle: Exclusion NG 3)
Input ligand: FMN 200 uM
  apparent KD of MS2 coat protein: 30.8 nM
[4]
  apparent KD of MS2 coat protein: 12.1 nM
Input ligand: none
  apparent KD of MS2 coat protein: 13.5 nM

## ACUUACUGAGGAUAUACUUAGAUUUACAUGAGGAUCACCCAUGUUCCUCUAUGUAUAUAUGUAGAAGGCAGAAGUU [Mat - Exclusion 5 - JL Mod - D49] (Eterna round: R97, puzzle: Exclusion 5)
Input ligand: FMN 200 uM
  apparent KD of MS2 coat protein: 216 nM
Input ligand: none
  apparent KD of MS2 coat protein: 38.1 nM
